B1: untagged recombinant Nap1 (natural protein, yeast, UniProt P25293 1-417, looked up)
chain: MSDPIRTKPKSSMQIDNAPTPHNTPASVLNPSYLKNGNPVRAQAQEQDDKIGTINEEDILANQPLLLQSIQDRLGSLVGQDSGYVGGLPKNVKEKLLSLKTLQSELFEVEKEFQVEMFELENKFLQKYKPIWEQRSRIISGQEQPKPEQIAKGQEIVESLNETELLVDEEEKAQNDSEEEQVKGIPSFWLTALENLPIVCDTITDRDAEVLEYLQDIGLEYLTDGRPGFKLLFRFDSSANPFFTNDILCKTYFYQKELGYSGDFIYDHAEGCEISWKDNAHNVTVDLEMRKQRNKTTKQVRTIEKITPIESFFNFFDPPKIQNEDQDEELEEDLEERLALDYSIGEQLKDKLIPRAVDWFTGAALEFEFEEDEEEADEDEDEEEDDDHGLEDDDGESAEEQDDFAGRPEQAPECKQS

What all share (assay): pull-down
The target of test [1] is T1, MBP-Kap114 (yeast, UniProt P53067 1-1004).
T1 sequence (looked up): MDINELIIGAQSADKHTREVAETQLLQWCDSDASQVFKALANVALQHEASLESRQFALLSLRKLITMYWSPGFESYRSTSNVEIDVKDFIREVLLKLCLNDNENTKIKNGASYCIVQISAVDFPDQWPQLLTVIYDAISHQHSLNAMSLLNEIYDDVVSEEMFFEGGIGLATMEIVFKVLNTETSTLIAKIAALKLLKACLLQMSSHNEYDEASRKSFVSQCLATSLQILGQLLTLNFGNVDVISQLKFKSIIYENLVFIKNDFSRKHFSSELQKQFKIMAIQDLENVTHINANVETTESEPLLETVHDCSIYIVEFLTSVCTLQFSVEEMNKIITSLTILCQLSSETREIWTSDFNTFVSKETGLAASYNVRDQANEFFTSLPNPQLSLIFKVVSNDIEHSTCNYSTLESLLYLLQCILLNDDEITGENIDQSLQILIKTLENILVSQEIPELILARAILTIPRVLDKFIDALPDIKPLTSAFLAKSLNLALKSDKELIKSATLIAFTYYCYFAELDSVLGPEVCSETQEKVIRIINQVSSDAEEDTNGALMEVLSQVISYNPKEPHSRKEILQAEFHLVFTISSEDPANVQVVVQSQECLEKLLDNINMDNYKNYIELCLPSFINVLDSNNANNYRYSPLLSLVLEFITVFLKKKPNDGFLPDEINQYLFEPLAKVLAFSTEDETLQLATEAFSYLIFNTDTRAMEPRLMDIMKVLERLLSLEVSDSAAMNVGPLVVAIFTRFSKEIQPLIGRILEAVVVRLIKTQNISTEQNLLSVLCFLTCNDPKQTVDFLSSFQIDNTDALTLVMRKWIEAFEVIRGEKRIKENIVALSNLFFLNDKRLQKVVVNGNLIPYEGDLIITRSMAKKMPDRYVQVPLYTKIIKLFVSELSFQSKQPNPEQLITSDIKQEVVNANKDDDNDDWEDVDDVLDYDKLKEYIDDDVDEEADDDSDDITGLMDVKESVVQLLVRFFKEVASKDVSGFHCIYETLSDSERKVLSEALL

Another test deals with T2, MBP-Kap123 (yeast, UniProt P40069 1-1113).
T2 sequence (looked up): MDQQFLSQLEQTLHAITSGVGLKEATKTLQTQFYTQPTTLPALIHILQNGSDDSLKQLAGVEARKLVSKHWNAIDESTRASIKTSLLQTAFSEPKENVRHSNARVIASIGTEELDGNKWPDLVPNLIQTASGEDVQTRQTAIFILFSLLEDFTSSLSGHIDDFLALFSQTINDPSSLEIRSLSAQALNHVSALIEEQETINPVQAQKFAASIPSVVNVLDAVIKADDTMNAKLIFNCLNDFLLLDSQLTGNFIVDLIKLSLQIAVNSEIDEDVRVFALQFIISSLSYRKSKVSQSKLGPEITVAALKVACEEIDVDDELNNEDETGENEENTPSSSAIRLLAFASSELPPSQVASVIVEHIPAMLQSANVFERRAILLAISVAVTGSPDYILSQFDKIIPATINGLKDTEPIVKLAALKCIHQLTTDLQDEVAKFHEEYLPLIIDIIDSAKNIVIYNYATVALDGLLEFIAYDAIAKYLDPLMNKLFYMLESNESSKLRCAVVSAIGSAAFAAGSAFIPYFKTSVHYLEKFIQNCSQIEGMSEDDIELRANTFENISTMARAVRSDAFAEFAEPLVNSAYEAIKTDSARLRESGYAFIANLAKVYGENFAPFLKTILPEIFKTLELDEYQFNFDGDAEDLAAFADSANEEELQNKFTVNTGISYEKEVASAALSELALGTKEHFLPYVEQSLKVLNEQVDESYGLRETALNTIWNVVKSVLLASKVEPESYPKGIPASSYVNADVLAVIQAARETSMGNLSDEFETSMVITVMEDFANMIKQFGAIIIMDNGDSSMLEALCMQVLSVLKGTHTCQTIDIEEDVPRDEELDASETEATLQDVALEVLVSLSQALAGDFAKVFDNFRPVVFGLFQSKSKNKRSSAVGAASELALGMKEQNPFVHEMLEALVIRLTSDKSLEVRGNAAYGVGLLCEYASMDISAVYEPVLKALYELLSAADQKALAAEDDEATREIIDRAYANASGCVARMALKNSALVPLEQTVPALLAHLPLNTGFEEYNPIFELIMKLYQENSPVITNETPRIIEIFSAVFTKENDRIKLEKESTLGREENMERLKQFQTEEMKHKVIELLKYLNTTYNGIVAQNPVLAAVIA

Test [2] deals with T3, untagged recombinant Kap95 (yeast, UniProt Q06142 1-861).
T3 sequence (looked up): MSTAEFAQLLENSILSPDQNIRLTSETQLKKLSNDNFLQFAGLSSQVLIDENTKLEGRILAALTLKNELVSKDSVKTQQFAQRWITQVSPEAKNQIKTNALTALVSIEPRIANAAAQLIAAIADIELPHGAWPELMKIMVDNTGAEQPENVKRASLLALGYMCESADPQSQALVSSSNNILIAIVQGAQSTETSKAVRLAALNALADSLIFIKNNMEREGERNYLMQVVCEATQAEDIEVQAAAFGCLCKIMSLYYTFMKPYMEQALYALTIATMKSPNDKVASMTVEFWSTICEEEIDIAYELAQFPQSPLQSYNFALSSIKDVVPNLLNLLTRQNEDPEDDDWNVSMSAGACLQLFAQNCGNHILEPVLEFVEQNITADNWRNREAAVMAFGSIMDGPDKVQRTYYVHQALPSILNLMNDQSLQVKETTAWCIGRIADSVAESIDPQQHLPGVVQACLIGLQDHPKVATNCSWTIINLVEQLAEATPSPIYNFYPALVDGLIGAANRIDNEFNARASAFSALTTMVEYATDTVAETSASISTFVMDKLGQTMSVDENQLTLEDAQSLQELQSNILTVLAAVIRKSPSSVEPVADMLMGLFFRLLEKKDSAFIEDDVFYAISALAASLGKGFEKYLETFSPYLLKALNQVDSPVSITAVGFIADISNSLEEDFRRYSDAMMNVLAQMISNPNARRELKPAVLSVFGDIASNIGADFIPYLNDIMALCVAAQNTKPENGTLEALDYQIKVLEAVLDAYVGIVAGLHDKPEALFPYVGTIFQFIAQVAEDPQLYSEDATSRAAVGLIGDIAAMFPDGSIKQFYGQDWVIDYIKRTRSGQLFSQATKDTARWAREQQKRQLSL

The target in test [3] is T1, MBP-Kap114. The source holds these as a separate data set.
Test [4] addresses B1.
For test [5], the target named is T3, untagged recombinant Kap95. The source holds these as a separate data set.

Where two headings read alike, the source gives them in different places.

In the case of B1, in the test with MBP-Kap114 [1], the binding result is “binds”.

B2: GST-Htz1_(1–53) (domain or fragment, yeast, UniProt Q12692 1-53, looked up)
chain: MSGKAHGGKGKSGAKDSGSLRSQSSSARAGLQFPVGRIKRYLKRHATGRTRVG
Regarding B2, the binding result (with MBP-Kap123; in test [2]; with MBP-Kap114 [3]; in test [4]) was “binds” each time.

B3: H6-Srp1 (natural protein, yeast, UniProt Q02821 1-542, looked up)
chain: MDNGTDSSTSKFVPEYRRTNFKNKGRFSADELRRRRDTQQVELRKAKRDEALAKRRNFIPPTDGADSDEEDESSVSADQQFYSQLQQELPQMTQQLNSDDMQEQLSATVKFRQILSREHRPPIDVVIQAGVVPRLVEFMRENQPEMLQLEAAWALTNIASGTSAQTKVVVDADAVPLFIQLLYTGSVEVKEQAIWALGNVAGDSTDYRDYVLQCNAMEPILGLFNSNKPSLIRTATWTLSNLCRGKKPQPDWSVVSQALPTLAKLIYSMDTETLVDACWAISYLSDGPQEAIQAVIDVRIPKRLVELLSHESTLVQTPALRAVGNIVTGNDLQTQVVINAGVLPALRLLLSSPKENIKKEACWTISNITAGNTEQIQAVIDANLIPPLVKLLEVAEYKTKKEACWAISNASSGGLQRPDIIRYLVSQGCIKPLCDLLEIADNRIIEVTLDALENILKMGEADKEARGLNINENADFIEKAGGMEKIFNCQQNENDKIYEKAYKIIETYFGEEEDAVDETMAPQNAGNTFGFGSNVNQQFNFN
As for B3, the binding result in test [5] is given as “binds”.

Source of the values: paper PMC2907061 (Traffic (Copenhagen, Denmark), 2009).
